T1: huCD148 on human endothelial cells (planar migration assay) (human, UniProt Q12913 36-1337)
T1 sequence (looked up): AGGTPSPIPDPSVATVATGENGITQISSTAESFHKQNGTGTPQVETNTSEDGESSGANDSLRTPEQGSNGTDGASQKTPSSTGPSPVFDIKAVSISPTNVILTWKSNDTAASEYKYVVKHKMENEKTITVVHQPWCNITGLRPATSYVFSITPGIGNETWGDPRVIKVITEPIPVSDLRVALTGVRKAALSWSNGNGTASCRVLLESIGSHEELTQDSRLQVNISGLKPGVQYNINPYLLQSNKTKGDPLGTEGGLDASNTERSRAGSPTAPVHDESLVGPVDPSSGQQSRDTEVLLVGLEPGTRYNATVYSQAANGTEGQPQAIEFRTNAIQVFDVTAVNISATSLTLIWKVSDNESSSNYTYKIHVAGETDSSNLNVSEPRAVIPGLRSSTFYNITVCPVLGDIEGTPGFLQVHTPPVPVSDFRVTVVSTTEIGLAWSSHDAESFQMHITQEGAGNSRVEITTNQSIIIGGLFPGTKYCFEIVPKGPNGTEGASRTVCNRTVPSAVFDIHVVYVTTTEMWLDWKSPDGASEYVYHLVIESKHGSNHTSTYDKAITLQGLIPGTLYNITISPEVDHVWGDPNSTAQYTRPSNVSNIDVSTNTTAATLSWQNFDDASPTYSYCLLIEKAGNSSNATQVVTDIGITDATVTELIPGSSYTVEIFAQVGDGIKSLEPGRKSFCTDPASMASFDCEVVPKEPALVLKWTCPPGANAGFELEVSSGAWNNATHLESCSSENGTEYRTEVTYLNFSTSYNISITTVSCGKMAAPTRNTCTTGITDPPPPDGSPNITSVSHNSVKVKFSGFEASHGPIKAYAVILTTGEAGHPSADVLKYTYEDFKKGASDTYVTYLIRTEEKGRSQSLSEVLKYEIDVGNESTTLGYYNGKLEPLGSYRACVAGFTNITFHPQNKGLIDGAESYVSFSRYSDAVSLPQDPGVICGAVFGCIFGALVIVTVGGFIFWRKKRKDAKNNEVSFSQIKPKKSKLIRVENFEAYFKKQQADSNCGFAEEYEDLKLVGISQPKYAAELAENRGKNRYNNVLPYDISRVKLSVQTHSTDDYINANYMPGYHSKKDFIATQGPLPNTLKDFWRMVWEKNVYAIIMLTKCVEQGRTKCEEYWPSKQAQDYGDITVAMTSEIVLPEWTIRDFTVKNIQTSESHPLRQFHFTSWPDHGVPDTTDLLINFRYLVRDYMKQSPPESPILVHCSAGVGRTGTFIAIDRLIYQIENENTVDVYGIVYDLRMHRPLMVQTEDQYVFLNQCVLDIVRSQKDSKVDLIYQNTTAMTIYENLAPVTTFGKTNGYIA

B1: Antibody No. 1 (Ab-1) (antibody, V domains shown)
VH: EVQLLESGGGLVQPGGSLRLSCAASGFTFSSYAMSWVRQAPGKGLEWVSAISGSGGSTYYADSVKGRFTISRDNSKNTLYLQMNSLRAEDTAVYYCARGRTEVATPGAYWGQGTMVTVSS
VL: QAVLTQPSSVSGAPGQRVTISCTGSSSNIGAGYDVHWYQQLPGTAPKLLIYGNSNRPSGVPDRFSGSKSGTSASLAVTGLQAEDEADYYCQSYDSSLSDVVFGGGTKLTVL
B2: Antibody No. 2 (Ab-2) (antibody, V domains shown)
VH: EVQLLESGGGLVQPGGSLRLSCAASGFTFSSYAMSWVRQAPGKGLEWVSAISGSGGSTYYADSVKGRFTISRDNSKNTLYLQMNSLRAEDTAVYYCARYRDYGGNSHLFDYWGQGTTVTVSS
VL: EIVMTQSPSSLPASVGDRVTITCRASQNIKTYLHWYQQKPGKAPNLLIYAASNLQIGVPSRFSGSGSGTDFTLTISSLQPEDFATYFCQQSYITPPTFGQGTRLEIK
B3: Antibody No. 3 (Ab-3) (antibody, V domains shown)
VH: GVQLVQSGAEVKKPGASVKVSCKASGYTFTSYYMHWVRQAPGQGLEWMGIINPSGGSTSYAQKFQGRVTMTRDTSTSTVYMELSSLRSEDTAVYYCARRVISGAFDIWGQGTMVTVSS
VL: DIQMTQSPSTLSASIGDRVTITCRASEGIYHWLAWYQQKPGKAPKLLIYKASSLASGAPSRFSGSGSGTDFTLTISSLQPDDFATYYCQQYSNYPLTFGGGTKLEIK
B4: Antibody No. 4 (Ab-4) (antibody, V domains shown)
VH: QVQLVQSGAEVKKPGASVKVSCKASGYTFTSYYMHWVRQAPGQGLEWMGIINPSDGSTRYVEKFQGRVTMTRDTSTSTVYMELSSLRSEDTAVYFCARGMGPGPHYHFYMDVWGKGTMVTVSS
VL: SSELTQDPAVSVALGQTVRITCQGDSLRSYYTNWFQQKPGQAPLLVVYAKNKRPSGIPDRFSGSSSGNTASLTITGAQAEDEADYYCHSRDSGGNHVLFGGGTKLTVL
B5: Antibody No. 5 (Ab-5) (antibody, V domains shown)
VH: QVQLVQSGAEVKKPGASVKVSCKASGYTFTGQYIHWVRQAPGQGLEWMGWISAYNGYTDYAQKVQGRVTMTTDTSTSTAYMELRSLRSDDTAVYYCAREVWPVAAADTFSVFDIWGRGTLVTVSS
VL: SSELTQDPAVSVALGQTVRITCQGDSLRSYYASWYQQKPGQAPVLVIYGKNNRPSGIPDRFSGSSSGNTASLTITGAQAEDEADYYCNSRDSSGNHVVFGGGTKLTVL
B6: Antibody No. 6 (Ab-6) (antibody, V domains shown)
VH: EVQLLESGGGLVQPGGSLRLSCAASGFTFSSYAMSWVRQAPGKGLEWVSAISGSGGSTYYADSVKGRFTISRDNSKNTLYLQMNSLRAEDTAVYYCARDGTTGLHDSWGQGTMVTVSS
VL: QSVLTQPPSASGTPGQRVTISCSGSSSNVGSNFVYWYQQFPGTAPKLLIYRNNQRPSGVPDRFSGSKSGTSASLAISGLRSEDEADYYCAAWDDTLNGHYVFGGGTKLTVL
B7: Antibody No. 7 (Ab-7) (antibody, V domains shown)
VH: EVQLVQSGAEVKKPGESLKISCKGYGYDFSRDWIAWVRQMPGKGLEWMGIIYPGDSDTRYSPSFEGQVTISADKSISTAYLQWRSLKASDTAMYYCARQRRLGWFDPWGQGTMVTVSS
VL: RSVLTQPPSVSAAPGQKVTISCSGSTSNIGNNYVSWYQQHPGKAPKLMIYDVSKRPSGVPDRFSGSKSGNSASLDISGLQSEDEADYYCAAWDDSLSEFLFGTGTKLTVL
B8: Antibody No. 8 (Ab-8) (antibody, V domains shown)
VH: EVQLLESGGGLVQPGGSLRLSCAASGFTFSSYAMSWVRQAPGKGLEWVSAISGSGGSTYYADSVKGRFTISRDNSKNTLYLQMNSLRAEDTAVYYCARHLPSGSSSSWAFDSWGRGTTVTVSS
VL: SYVLTQPPSASGTPGQRVTISCSGSSSNIGSNYVYWYQQLPGTAPKLLIYRNNQRPSGVPDRFSGSKSGTSASLAISGLQSEDEADYYCEAWDDNVDGPVFGGGTKLTVL

Target: T1, huCD148 on human endothelial cells …
Assay: cell-based or functional assay

Q: B1 was tested. Which “inhibiting human endothelial cell migration and/or inhibited angiogenesis in the corneal angiogenesis assay” value did it give?
A: ≥ 20%

Q: B2 was tested. Which “inhibiting human endothelial cell migration and/or inhibited angiogenesis in the corneal angiogenesis assay” value did it give?
A: ≥ 20%

Q: With B3 as the binder, how does the “inhibiting human endothelial cell migration and/or inhibited angiogenesis in the corneal angiogenesis assay” value read?
A: ≥ 20%

Q: How did the “inhibiting human endothelial cell migration and/or inhibited angiogenesis in the corneal angiogenesis assay” value turn out when B4 was run?
A: ≥ 20%

Q: Which “inhibiting human endothelial cell migration and/or inhibited angiogenesis in the corneal angiogenesis assay” value does the source give for B5 here?
A: ≥ 20%

Q: For B6, which “inhibiting human endothelial cell migration and/or inhibited angiogenesis in the corneal angiogenesis assay” value is on record?
A: ≥ 20%

Q: For B7, which “inhibiting human endothelial cell migration and/or inhibited angiogenesis in the corneal angiogenesis assay” value is on record?
A: ≥ 20%

Q: With B8 as the binder, how does the “inhibiting human endothelial cell migration and/or inhibited angiogenesis in the corneal angiogenesis assay” value read?
A: ≥ 20%

From patent publication US20090263383A1 (Amgen, published 2009)
